From patent publication US20250290928A1, “METHOD, KIT AND DEVICE FOR DETECTING EXTRACELLULAR VESICLES” (priority 2022, published 2025)
No end group written: not given here. *: point of attachment. 5FAM = O=C1OC2(c3ccc(O)cc3Oc3cc(O)ccc32)c2ccc(C(=O)*)cc21; TQ2 = quencher; TQ3 = quencher

Target: T1, MMP14 in the MDA-MB-231-derived extracellular vesicles (Homo sapiens, UniProt P50281)
T1 construct: in terms of intact MMP14 with a molecular weight of 70 kDa
Assay: Digital detection of MDA-MB-231-derived extracellular vesicles through MMP14 activity in wells (microcompartments)
Assay type: biochemical
Settings: for Expected value λ (×1): at EV concentration x1
In short: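 MDA-MB-231 extracellular-vesicle samples were mixed 1:1 with MMP14 detection solution. The reaction mix was sealed under fluorinated oil in 50 fL microwells (239,000-well array), giving digital single-well readout of MMP14 activity. Standard samples were prepared by serial dilution, and bulk MMP14 activity was also measured in 96-well format.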

[1] = Example 18, 78.5 fL wells, EV 3.3 μg/mL, reporter 5 μM, 37° C., 3 hours, oil AE-3000 and Y25
[2] = Example 18, 78.5 fL wells, EV 3.3 μg/mL, reporter 5 μM, 37° C., 3 hours, oil Simoa
[3] = Example 19, 37° C., 3 h, EV 0.0001 a.u. (x1=10 μg/mL)
[4] = Example 19, 37° C., 3 h, EV 0.001 a.u. (x1=10 μg/mL)
[5] = Example 19, 37° C., 3 h, EV 0.01 a.u. (x1=10 μg/mL)
[6] = Example 19, 37° C., 3 h, EV 0.1 a.u. (x1=10 μg/mL)
[7] = Example 19, 37° C., 3 h, EV 1 a.u. (x1=10 μg/mL)
[8] = Example 19, 37° C., 7 h, EV 0.0001 a.u. (x1=10 μg/mL)
[9] = Example 19, 37° C., 7 h, EV 0.001 a.u. (x1=10 μg/mL)
[10] = Example 19, 37° C., 7 h, EV 0.01 a.u. (x1=10 μg/mL)
[11] = Example 19, 37° C., 7 h, EV 0.1 a.u. (x1=10 μg/mL)
[12] = Example 19, 37° C., 7 h, EV 1 a.u. (x1=10 μg/mL)
[13] = Example 22, buffer (2), 37° C., 1 h, EV 0 (free of extracellular vesicles)
[14] = Example 22, buffer (2), 37° C., 1 h, EV 0.111 a.u.
[15] = Example 22, buffer (2), 37° C., 1 h, EV 0.333 a.u.
[16] = Example 22, buffer (2), 37° C., 1 h, EV 1 a.u. (x1=10 μg/mL)
[17] = Example 22, buffer (2), 37° C., 2 h, EV 0 (free of extracellular vesicles)
[18] = Example 22, buffer (2), 37° C., 2 h, EV 0.111 a.u.
[19] = Example 22, buffer (2), 37° C., 2 h, EV 0.333 a.u.
[20] = Example 22, buffer (2), 37° C., 2 h, EV 1 a.u. (x1=10 μg/mL)
[21] = Example 42, EV 2.5 μg/mL, reporter 5 μM, 30° C., 4 hr, TRITC filter
[22] = Example 42, EV 2.5 μg/mL, reporter 5 μM, 30° C., 24 hr, TRITC filter

## [5-FAM]GGPLGLAGGK(TQ2)[OH] (5FAM-GGPLGLAGGK(TQ2)-OH) [Custom #2]
[1]
  Expected value λ: 0.235
  Number of positives: 3,094
  Positive ratio: 0.21
[2]
  Expected value λ: 0.188
  Number of positives: 2,529
  Positive ratio: 0.171
Example 18, oil AE-3000 and Y25
  Extracellular vesicle concentration: 9.1×10^8 /μg of protein
Example 18, oil AE-3000 and Y25, reaction solution 3.3 μg of protein/mL
  Extracellular vesicle concentration: 3e+09 mL⁻¹
Example 18, oil Simoa
  Extracellular vesicle concentration: 7.3×10^8 /μg of protein
Example 18, oil Simoa, reaction solution 3.3 μg of protein/mL
  Extracellular vesicle concentration: 2.4e+09 mL⁻¹
[3]
  Expected value λ: 0.000138
  Number of positives: 4
  Positive ratio: 0.000138
[4]
  Expected value λ: 0.0011
  Number of positives: 32
  Positive ratio: 0.0011
[5]
  Expected value λ: 0.00915
  Number of positives: 264
  Positive ratio: 0.00911
[6]
  Expected value λ: 0.0827
  Number of positives: 2,305
  Positive ratio: 0.0794
[7]
  Expected value λ: 0.717
  Number of positives: 14,539
  Positive ratio: 0.512
[8]
  Expected value λ: 0.000104
  Number of positives: 3
  Positive ratio: 0.000104
[9]
  Expected value λ: 0.000828
  Number of positives: 24
  Positive ratio: 0.000828
[10]
  Expected value λ: 0.0092
  Number of positives: 263
  Positive ratio: 0.00916
[11]
  Expected value λ: 0.0929
  Number of positives: 2,571
  Positive ratio: 0.0887
[12]
  Expected value λ: 2.33
  Number of positives: 26,093
  Positive ratio: 0.902
Example 19, 3 hours
  Extracellular vesicle concentration: 1.3×10^9 /μg of protein
Example 19, 3 hours, reaction solution 10 μg of protein/mL, 50 fL
  Extracellular vesicle concentration: 1.3e+10 mL⁻¹
Example 19, 7 hours
  extracellular vesicles in which MMP14 activity can be detected, contained in 1 μL of the extracellular vesicles (50 μg of protein in 50 μL of PBS): 1.8×10^9
Example 19, 7 hours, reaction solution 10 μg of protein/mL, 50 fL
  Extracellular vesicle concentration: 1.8e+10 mL⁻¹
Example 19, reaction time of 3 hours
  λ at x1 from the approximation: 0.6727
Example 19, reaction time of 7 hours
  λ at x1 from the approximation: 0.8756
Example 22, after 1 hour
  expected value λ at x1 (power approximation): 0.5098
Example 22, after 2 hours
  expected value λ at x1 (power approximation): 0.7649
[13]
  Expected value λ: 0
  Number of positives: 0
  Positive ratio: 0
[14]
  Expected value λ: 0.0648
  Number of positives: 1,819
  Positive ratio: 0.0627
[15]
  Expected value λ: 0.193
  Number of positives: 5,094
  Positive ratio: 0.176
[16]
  Expected value λ: 0.497
  Number of positives: 11,360
  Positive ratio: 0.392
[17]
  Expected value λ: 0
  Number of positives: 0
  Positive ratio: 0
[18]
  Expected value λ: 0.0988
  Number of positives: 2,727
  Positive ratio: 0.0941
[19]
  Expected value λ: 0.267
  Number of positives: 6,788
  Positive ratio: 0.234
[20]
  Expected value λ: 0.774
  Number of positives: 15,608
  Positive ratio: 0.539
Simoa Discs, buffer (4), reporter 5 μM, 37° C.
  extracellular vesicle concentration at which MMP14 activity was able to be detected in the microcompartments: ≥ 1 ng/mL

## TAMRA-GGPLGLAGGK(TQ3) ({TAMRA}-GGPLGLAGGK(TQ3)) [Custom #2T]
[21]
  Expected value λ: 0.1255
  Number of positives: 3,313
  Positive ratio: 0.118
[22]
  Expected value λ: 0.1339
  Number of positives: 3,518
  Positive ratio: 0.1253
Single reporter, reaction 4 hr
  Expected value λ (×1): 0.5022
Single reporter, reaction 4 hr, at x1, from λ (×1) and 50 fL microcompartment
  Extracellular vesicle concentration: 1.0044e+10 mL⁻¹
Single reporter, reaction 24 hr
  Expected value λ (×1): 0.5354
Single reporter, reaction 24 hr, at x1, from λ (×1) and 50 fL microcompartment
  Extracellular vesicle concentration: 1.0709e+10 mL⁻¹
